Laboratory results: a protein production outcome set (Wang et al. 2014)

Assay: label from the status in PepcDB records

| Sequence | protein production |
| --- | --- |
| MYLLDTTSTAAISIYALLLTAYRSMQVLYARPIDGPAVAAEPVETRPLPAVDVIVPSFNEDPGILSACLASIADQDYPGELRVYVVDDGSRNREAIVRVRAFYSRDPRFSFILLPENVGKRKAQIAAIGQSSGDLVLNVDSDSTIAFDVVSKLASKMRDPEVGAVMGQLTASNSGDTWLTKLIDMEYWLACNEERAAQSRFGAVMCCCGPCAMYRRSALASLLDQYETQLFRGKPSDFGEDRHLTILMLKAGFRTEYVPDAIVATVVPDTLKPYLRQQLRWARSTFRDTFLALPLLRGLSPFLAFDAVGQNIGQLLLALSVVTGLAHLIMTATVPWWTILIIACMTIIRCSVVALHARQLRFLGFVLHTPINLFLILPLKAYALCTLSNSDWLSRYSAPEVPVSGGKQTPIQTSGRVTPDCTCSGE | failed |
| MYLLRINIEGTINYGLYKYLYPALKAAEGKKSIAGLILVFNSGGGDAASSQLIHDLVKKIRKKKPVYSLALGICASGAYWIASASTKIYAIDTSLIGSIGVISIRPNVKKLMEKIGVDVMVYKSGKYKDMTSPFSEPNEEEKSVYQRLLDDIFEKFKRSVAEDRGIPSEKIDEIANGMVYSAKMAADNGLIDRIANYDDLVSDLTKEVGKRLKVKEFYIRKPLLQRLLGILEHHHHHH | failed |
| MYLLTFKGLIYSAGGTWLNKGNLMYFGSLIFLFLVVFLIFSEQRTEKTSGLEKVSVQEAKEMIEKGDVFVLDVRTPDEFNSSHIKGATLIPLSNAFGSNLSSESLLKAHIDEVPKEKILVYCRTGRRSDTAGRMLVNAGYTQVYNMVGGIIAWTDAGYPVVSSEDTESEGSHN | failed |
| MYNLLLTILLVLSGLLEIAIFMQPQKNPSSNVFDSSGSEALFERTKARGFEAFMQRFTAVLVFFWLAIALVLAILSSK | failed |
| MYNSRESILSNPVQSAIVSISFFSVVAIIIIAIYPEILSPQRKMERIDDFVVIIATLTFLFIGLSLINSFGTDNMEYTYEALNNFFQGKNPYEMVYGPHTVQPTYTLSGGVASNFIYPPFSFIVYIPIYLLIKAFNLPGYVLNAENVIFAVILGLLLYKIGKEKDDPFALFPVIFLYIITAVSIPPFYGVPIVIASTFLALSYVKKNYLGGISLALAISFSQLSWLAFPFLLIYRIRSDNVGKQFLRSSYFLSFLITLSIINIPFLAWNPVRFIGNIITLNTQLIPVGQIGLTVISYSGLYPMEPWFFTIVFGVVAIFLTYLYYQLFDYLKEIIWLFPLIISWFLWRTLTEYFFMWIPLIFTSLFRTQYKLPTIKLNFKKKIVLPLLIIFVFLASLSVYAHESYVASNPLKIDEVYTLQNTPPYTALIIKVQNTKNEPVNITLVRVSIPNNLNMVWNSTETVIPPNSSALVFAYASNSLEAINSTPFTVQVYSEYYFATYTVNSTQ | failed |
| MYPEKEYEELIKKIKTKVKEELNKNSKANVSGLNLDTAKRLADAAVKKAGEMGVNVAVAVMDIHGNMILFNRMDDSVLAAIEVAPKKAYTSAALRIPSSEVLKGGFDKLVETMEGKIAAFGGGLPVRSNGIFLGALGVSGGTSEEDIKIAEYAVNAVFG | failed |
| MYQTIEGFLQSWTYETESTQKMLDVLTDESLSQEIAPGHWTLGRVAWHIVTAIPVILSGTGLKFEGETKDYPVPTSAKTIADGYRKVNTAFVEALQSEWTDKDLTTINDFFGRPMPNSIFLMTLINHQNHHRGQMTVLMRQAGLTVPGVYGPAKEEWATAGMEAPKM | not failed |
| MYQVIIFALLFAGISSGFITFRIMGMRMAPHFGVLILALIATAANIMSGNVTLNYVAVALQVLTGISAYTQFLPVLRDSFQTAPLYACHLSTVTVAAVLAAASVPL | failed |
| MYSGAYSFVQISTAAYRISITRLEKTMESLQQQVAQLLEQQPTLLPAAMAEQLNVTEFDIVHALPEEMVAVVDGSHAQTILESLPEWGPVTTIMTIAGSIFEVKAPFPKGKVARGYYNLMGRDGELHGHLKLENISHVALVSKPFMGRESHYFGFFTAQGENAFKIYLGRDEKRELIPEQVARFKAMQQQHKQLEHHHHHH | not failed |
| MYSGFTREKSDLRTEDVEITKEPFTLLIMGIEDYATDGQNGRTDSLMFATVNPKTQKISLMSIPRDSRVPIVGKNKEDKINAAHAYGGEEMAIKTVEGFLKVPVDHYVKIDFQGFKGIVDAVGGVTVDVPFDFWERSDVDYYKKIQFKQGQQELNGEEALAYVRMRKQDPNGDYGRAARQRQLLAAVAQKLNSTSTVFKIKDLTSVVGKYIKTDIPISDGLALYKKLSGFDPSTIQTLKLEGEDKKIGGIYYFLPDPNGVEAVRNEIKKELGLEHHHHHH | not failed |
| MYSMSMGERGEAPDGMSGVIRYESLLAARTMAQRQPKKSAGCADSVESFRNPKPKPRFDKDVFCKTSAIRRLRSDFLHGDGSRGTGRHRAVARGPDGVRLHPAGRQRPNLPVASSASRTRHDQGSGRMSVVSAIIGTAERVPLPDVVIRAAIQRLCSRTATRISALGADDEAAFAGRMMLRPIAEDVDAANAGHDEAPASFIAQALGPNRKYSSCFYTTDATTLREAEEEALRQTVAHAGLADGQTILELGCGWGSLSLWTARQFPHAKVTAVSNSQGQRAYVEEQARLRGLLNLRVVTADMNVFAPEGQFDRIVSVEMFEHVMNWRKLMTRLRSWLAPEGRLFMHIVTHRSGSHLFDRANREDWIAQHVFTGGLMASHHLVRQFDDIFTVEKEWCWSGTHYQRTANDWLANFDAHRDAIEASLRNVHGDETALWMRRWRWFFLATSGLFGYAGGTEWGVSHYRMKAADEGVS | failed |
| MYSPIPPSLFQQIQPAYCGQEFILLRDNEEYKEIIVQAGRTYEISLMVESENSYIAWDFSLTQGKITMVIIFKTKYVTVNHLIAFSDD | failed |
| MYTKTKASISALLILITITLSSCSGTKNKDIYSRKNSNAAHTVATIGYDNKTYVSLKEAFKSVGGKCTLNGEGAIASKGKDIIKVSASSSTAYLNSSKIAMSANPKLKNNDIYVPMDFLNQVMDARITYSNGKLNIQTELPLKYTKAFNIKYLKGGIKKITDGNNKTVILVPKNKTVPAEYKNETVITYPVNNVLVSSATQGSLLRPLDEIKSIKTVTLKENEWEIDEIKSLLNDNKITYIGDTTSPDFEKISSSKPDVAILYGGSYGLNNMMKKFDELHINYTSDNEYLEEDPLGRLEWIKFLSAFYDKEDKAENYFNQQVSKVMATENKVSSLKKPKVAFGMVDNGKVYIPAKNSYAAKMVDMAGGDYIFKDLNNKSGYITLEDFYSKSKDADVLIYSSSKEYTPSLKSMLSAAPILKTIKPVKNKKVWCFGKDYYQAIDKTDEIIEDLASIFHPESFKGYKIKHYSHY | failed |
| MYTNRWEGLDEFVAVAECGQFTAAALRLGVSSSHVSRQIVRLEERLQTRLLYRSTRKVALTEAGQTFLHHCQRLQDGREEALRAVGDLASEPKGLLRMTCAVAYGERFITPLVTRFMELYPQLRVDIELSNDTLDLVHEGMDLAIRLGRLQDSRMVATRLAPRQMYLCASPSYLERYGRPHSLSELSRHNCLIGGSDTWQLQQNGREFSQRVQGNWRCNSGQAVLDAALQGVGLCQLPDYYVQKHLKEGALVSLLEAHQPPNTAVWALYPQQRHLSPKVRKLVDYLKEGLAMQDEYRQ | failed |
| MYVLIGGAGLIGQQLARQVLDQGHTVAVIDQDPQVCKMVRDRLGAMAFEGSAVNTDILLEAGICRADAVAAVLRQDALNLALVTLACHYGVSRIISRISQQDFIEPMRLAGAHHIISTVDLVVSTMVNAIECPQVESMLHFEQGQIEVFKLTLDSQSPVIGRSVAAIAQDRNFPSSSLIIGYQSHPQADLVIPSGNTVLEANATVLLATKPGLVQSLVNFLMPSLFSPLEHHHHHH | failed |
| MYVLVSSPFHYKQFTKFTIFSVFAGFSFIQNELTTYWFFILLFRQEITLFGLGVIARPLVRVFVSYLMGYISDKYDRAKLFYITRGISGILLFPLTFAFIYHSIPLIFGIYYIRTIIVELSNNVGYVAYYAVVPEQVRAKAIFYIRIISMASRVASGAVWYLIYQLISAYDLFLAGILGLIGLALLKGFNIGGGSKRVKLSTAIDFFRKDERIRGIILLYSVTDGLTYSINYLLPLLIIVYHGTEEIYSLSQTVLYGILVIASFVMTRIKDPIKIVSTYILSGFLFYLVLLYPSPYVLLISVLLYGFGSGIVENYVMATIKQSVGDEFLGSVLGLDVLVTSSVEIFLILLGQYLITINVVYYIIVGIVGMSLVLISWLLHPKLKDIKL | failed |
| MYVTRRLSEYQKKPSELKLLPPEGPNSGIMVIQDEESQATCCFGSCYEGRLKGLPFPQNVKLNAAYTSGGGEHQTTHLTPVVFIPVLDQPLSSNLYYVLQRRGKHTGKASASATEEERVSSCFCFSYIPDAKPQEADPYDIYQQFEIHQRRSSSRYYSATSVASDGVPPNYLKRKDWWVSYSTSHDFGLRDDAKGINTKLRLDSELTSLGKSIEIGKWYVPFIFVMEGDVKDQMNKSTFYSVTLQQRWEEVFFCENIGNEHFEVVVDVDVETESVKLEGQETNLREDSGDGVVWFSVLRDEKDDKKIGLGSVVVERMKWEEERFGWLNEAGERSNIKRSERFEGGSSHWKSYRCYVLIESFELTRMDGSLVLTYEFRHVDKLKSKWD | failed |
| NDNSPRFEKSVYEADLAENSAPGTPILQLRAADLDVGVNGQIEYVFGAATESVRRLLRLDETSGWLSVLHRIDREEVNQLRFTVMARDRGQPPKTDKATVVLNIKDENDNVP | not failed |
| NENPDKPTDDVNYNMNEPRLASTLRGGLIIEGNVEQRLKPLQIDFYSQMTVDGGGWGTKNYIQDDEWNNLVWEEYLKQIASINIVIRSLTEKDKDAYANTIAFARIWRVYVHTLAADKFGPMPFPAYEIVEANPPYKSLKDIYDEYFRELDAAINGFNDSAQPIFSDAGIDLIYKNDVSKWKRFANSLRLRLAVRLTEVDQEKCIAEANAAISSPAGLISDKADNAYMPPKADGSWGQDYNYTMFQITWSGPICMSKSVEKLVTNIGGVAWPQGVVNQTSGVAVSSVHPEKVDPRAPKIFQPGIENGDWKGLVYGPKAEEANTGIYQSKQCAELGFIIKDGYPYKSRPYDLFLSEEVHFLKAELYARGFIAGDAKSEYEAGVRASFATWGVTSEVDDYLTSTEKNEAGTSARYDDQQGAGNTALEKIITQKYIAGIPDLAQEGWNDKRRLNLPRLDVAVYRDQAVYNNNDKDILKSANFIKRMRYPTKESLINATEYEKGKSMLGGKGDIVSTPLWWDKNSNYCTSSK | not failed |
| NGVWVIGEQREGKINPVTIELIGEGRKLADQLGKELAVVIAGYEVEKEVKELLHYSVDKVYYINDPLLKDFTTDGYAISIANLIERKKPEVVLVGATSIGRDIAPRIAGKVGTGLTADCTKLEIDSTDNKLLQTRPAFGGNLMATIVCPKNRPQMSTVRPGVMAKAVRNESETGILEVVTPELTEKMIRTRLVEILPQEKKSVN | not failed |
| NGYTMQRDNQKTLAVYMFEEINRDVEYLSGRLSEKELKDKYRYYGRGYVRITDKDGQVITYEDGSVQDKTVFLTNEGANKLGWKLEFLIDEKMFEEEILEKQN | not failed |
